Source: patent publication US20050182242A1, “Global analysis of protein activities using proteome chips” (priority 2001, published 2005)

Columns and labels:
[1] = tested on: PI(3,4)P2 liposomes; assay: Yeast proteome chip probed with PI(3,4)P2 liposomes; conditions: liposome binding signal on yeast proteome chip, Cy3-streptavidin detection
Excerpt: (§1) To identify PI-binding proteins in yeast, liposomes were used as probes because the liposome provides the most relevant physiological condition to assay the interactors. Six types of liposomes were used. Each contains phosphatidylcholine (“PC”) with 1% (w/w) N-(biotinoyl)-1,2-dihexadecanoyl-sn-glycero-3-phosphoethanolamine, triethylammonium salt (biotin DHPE). The biotinylated lipid serves as a label that can be detected by Cy3-streptavidin (21). In addition to PC, the five other liposomes contain either 5% (w/w) PI(3)P, PI(4)P, PI(3,4)P2, PI(4,5)P2, or PI(3,4,5)P3 (FIG. 3A).
(§2) The protein-liposome interaction was assayed as follows. Appropriate amounts of each lipid in chloroform were mixed and dried under nitrogen. The lipid mixture was resuspended in TBS buffer by vortexing. The liposomes were created by sonication. Blocked proteome chips were washed three to five times in PBS buffer, and the extra liquid on the glass surface was removed by tapping the slides vertically on a KIMWIPE™. 200 μl of liposome solution was added to the proteome chip and immediately covered by a hydrophobic plastic cover slip (GRACE BIO-LAB™, USA). After trapped air bubbles were removed, the chip was incubated in a humidity chamber at RT for one hour. To remove the cover slip, the chip was immersed into large volume of PBS buffer (50 ml), so that the slip would float away. The chip was then moved to a second PBS bath (>50 ml) and washed 3×5 min with shaking at RT. After removing extra liquid on the surface of the chip, about 100 μl of Cy3 or Cy5 conjugated streptavidin (PIERCE™, USA; 1:2000 to 1:4000 dilution) was added to the surface and covered by a hydrophobic plastic cover slip (GRACE BIO-LABS™, USA). The chip was incubated for greater than 30 min in the dark at RT. The chip was then washed as described above. To completely remove the liquid on the chip, the chip was spun to dryness at 1500-2000 rpm for 5-10 min at RT.
(§3) • 1. S. Fields, Y. Kohara, D. J. Lockhart, Proc. Natl. Acad. Sci. 96, 8825 (1999); A. Goffeau et al., Science 274, 563 (1996). • 2 P. Ross-Macdonald et al., Nature 402, 413 (1999); J. L., DeRisi, V. R. Iyer, P. O. Brown, Science 278, 680 (1997); E. A. Winzeler et al., Science 285, 901 (1999). P. Uetz et al., Nature 403, 623 (2000); T. Ito et al., Proc. Natl. Acad. Sci. USA. 97, 1143 (2000) • 3 H. Zhu, M. Snyder, Curr. Opin. Chem. Biol. 5, 40 (2001). • 4 M. R. Martzen et al., Science 286, 1153 (1999). • 5 H. Zhu et al., Nat. Genet. 26, 283 (2000). • 6 G. MacBeath, S. L. Schreiber, Science 289, 1760 (2000). • 7 A. Caveman, J. Cell Sci. 113, 3543 (2000). • 8 P. Arenkov et al., Anal. Biochem 278, 123 (2000). • 9 D. A. Mitchell, T. K. Marshall, R. J. Deschenes, Yeast 9, 715 (1993). The expression vector pEGH was created by inserting an RGS-HisX6 epitope tag between the GST gene and the polycloning site of pEG(KG). The yeast ORFs were cloned using the strategy described previously (5), except every step was done in a 96-well format. Plasmid DNAs confirmed by DNA sequencing were reintroduced into both yeast (Y258) and E. coli (DH5a). […] 0.1 mM calcium was present in buffers in all subsequent steps. The chip was washed three times with PBS at RT. Cy3-conjugated streptavidin (Jackson IR, USA) (1:5000 dilution) was added to the chip and incubated for 30 min at RT. After extensive washing, the chip was spun dry and scanned using a microarray scanner; the data was subsequently acquired with the GENEPIX™ array densitometry software (Axon, USA). • 12 S. S. Hook, A. R. Means, Annu. Rev. Pharmacol. Toxicol.41, 471 (2001). • 13 M. S. Cyert, R. Kunisawa, D. Kaim, J. Thorner, Proc. Natl. Acad. Sci. USA 88, 7376 (1991). • 14 D. A. Stirling, K. A. Welch, M. J. Stark, EMBO J. 13, 4329 (1994). • 15 F. Bohl, Kruse, EMBO J. 19, 5514 (2000); E. Bertrand et al., Mol. Cell 2, 437 (1998). • 16 D. C. Winter, E. Y. Choe, R. Li, Proc. Nat. Acad Sci. USA 96, 7288 (1999). • 17 C.

[2] = tested on: PI(4,5)P2 liposomes; assay: Nitrocellulose membrane assay: adhered PI(4,5)P2 liposomes probed with GST fusion proteins; assay type: binding; conditions: dilution series, anti-GST antibodies, ECL
Excerpt: A. PI(4,5)P2 liposomes were first adhered to a nitrocellulose membrane, which was blocked by BSA; a dilution series of Rim15p, Eno2p, and Hxk1p, and a GST control were used to probe the membrane. The bound proteins were detected using the anti-GST antibodies and an enhanced chemiluminescence (“ECL”) kit.
Therefore, six proteins, i.e., Rim15p, Eno2p, Hxk1p, Sps1p, Yg1059wp, and Gcn2p, were further tested for phosphoinositol binding using two types of standard assays (Williamson, 2000, Nat. Struct Biol. 7(10):834-7). For Rim15p, Eno2p, and Hxk1p, PI(4,5)P2 liposomes were first adhered to a nitrocellulose membrane, which was then blocked by BSA; different amounts of the GST fusion proteins and a GST control were used to probe the membrane, and bound proteins were detected using anti-GST antibodies. […] We also carried out the reverse assay for four GST fusion proteins, Rim15p, Sps1p, Yg1059wp, and Gcn2p (Guerra et al., 2000, Biosci. Rep. 20: 41). Different amounts of these purified proteins were spotted onto nitrocellulose filters and probed with the six different liposomes (FIG. 5B). The bound liposomes were detected using a horseradish peroxidase (“HRP”)-conjugated streptavidin.

[3] = tested on: PI(4)P liposomes; assay: Yeast proteome chip probed with PI(4)P liposomes; conditions: liposome binding signal on yeast proteome chip, Cy3-streptavidin detection
Excerpt: as §1, §2
as §3, with “Pharmacol. Toxicol.41, 471 (2001). • 13 M. S. Cyert, R. Kunisawa, D. Kaim, J. Thorner, Proc. Natl. Acad. Sci. USA 88, 7376 (1991). • 14 D. A. Stirling, K. A. Welch, M. J. Stark, EMBO J. 13, 4329 (1994). • 15 F. Bohl, Kruse, EMBO J. 19, 5514 (2000); E. Bertrand et al., Mol. Cell 2, 437 (1998). • 16 D. C. Winter, E. Y. Choe, R. Li, Proc. Nat. Acad Sci. USA 96, 7288 (1999). • 17 C.” left out

[4] = tested on: phosphatidylcholine (PC) liposomes; assay: Yeast proteome chip probed with PC liposomes; conditions: liposome binding signal on yeast proteome chip, Cy3-streptavidin detection
Excerpt: as §1, §2
as §3, with “Pharmacol. Toxicol.41, 471 (2001). • 13 M. S. Cyert, R. Kunisawa, D. Kaim, J. Thorner, Proc. Natl. Acad. Sci. USA 88, 7376 (1991). • 14 D. A. Stirling, K. A. Welch, M. J. Stark, EMBO J. 13, 4329 (1994). • 15 F. Bohl, Kruse, EMBO J. 19, 5514 (2000); E. Bertrand et al., Mol. Cell 2, 437 (1998). • 16 D. C. Winter, E. Y. Choe, R. Li, Proc. Nat. Acad Sci. USA 96, 7288 (1999). • 17 C.” left out

[5] = tested on: PI(4,5)P2 liposomes; assay: Yeast proteome chip probed with PI(4,5)P2 liposomes; conditions: liposome binding signal on yeast proteome chip, Cy3-streptavidin detection
Excerpt: as §1, §2, §3

[6] = tested on: PI(3)P liposomes; assay: Yeast proteome chip probed with PI(3)P liposomes; conditions: liposome binding signal on yeast proteome chip, Cy3-streptavidin detection
Excerpt: as §1
The protein-liposome interaction was assayed as follows. Appropriate amounts of each lipid in chloroform were mixed and dried under nitrogen. The lipid mixture was resuspended in TBS buffer by vortexing. The liposomes were created by sonication. Blocked proteome chips were washed three to five times in PBS buffer, and the extra liquid on the glass surface was removed by tapping the slides vertically on a KIMWIPE™. 200 μl of liposome solution was added to the proteome chip and immediately covered by a hydrophobic plastic cover slip (GRACE BIO-LAB™, USA). After trapped air bubbles were removed, the chip was incubated in a humidity chamber at RT for one hour. To remove the cover slip, the chip was immersed into large volume of PBS buffer (50 ml), so that the slip would float away. […]

Substance: RIM15: yeast protein kinase, regulator of glucose metabolism, GST-HisX6 fusion
- PI(3, 4)P2 [1]: 4941.00
- binding to PI(4,5)P2 liposomes on membrane [2]: tightly bound PI(4,5)P2
- PI(4)P [3]: 2349.00
- PC [4]: 244.76
- PI(4, 5)P2 [5]: 687.19
- PI(3)P [6]: 52.50
